Assay [1] addresses T1, Recombinant FcγRIIA-131H/H allotype (generated at MedImmune) (human, UniProt P12318 34-217, limits assumed).
T1 construct: ELISA coating protein; also called human FcγRIIA; CD32A
T1 sequence: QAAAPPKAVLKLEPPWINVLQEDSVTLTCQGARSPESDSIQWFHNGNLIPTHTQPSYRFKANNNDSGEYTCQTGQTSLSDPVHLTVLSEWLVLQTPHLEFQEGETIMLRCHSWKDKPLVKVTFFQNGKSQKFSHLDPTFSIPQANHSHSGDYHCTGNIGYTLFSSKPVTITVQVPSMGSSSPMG
The experiment in a line: ELISA on coated recombinant FcγRIIA-131H/H. As to the method: Plates were washed five times with 200 μl of wash buffer (PBS containing 0.1% Tween 20), blocked with blocking buffer containing 5% milk in PBS for 1 hour at room temperature, and washed five additional times with wash buffer. Three-fold serial dilutions of the test antibody or control antibody (R347-Tm) were added to wells in duplicate. Plates were incubated for 2 hours at room temperature, and washed five times with wash buffer. Binding of the antibodies to the FcγRs was detected by adding 50 μl of goat anti-human Fc-HRP (Jackson ImmunoResearch Laboratories, PA) to the wells and incubating for 1 hour at room temperature, washing 10 times, and adding 50 μl TMB substrate (Pierce Biotechnology, MA). The color reaction was stopped with 50 μl 0.2M […] and the absorbance was measured using a spectrophotometer (Molecular Devices, CA) at […].
(An ELISA detects its analyte on a solid surface through an enzyme-linked reagent.)

The target in assay [2] is T2, human FcγRIIA 131R on blood cells of 131R/R donors (human, UniProt P12318 34-317).
T2 chain: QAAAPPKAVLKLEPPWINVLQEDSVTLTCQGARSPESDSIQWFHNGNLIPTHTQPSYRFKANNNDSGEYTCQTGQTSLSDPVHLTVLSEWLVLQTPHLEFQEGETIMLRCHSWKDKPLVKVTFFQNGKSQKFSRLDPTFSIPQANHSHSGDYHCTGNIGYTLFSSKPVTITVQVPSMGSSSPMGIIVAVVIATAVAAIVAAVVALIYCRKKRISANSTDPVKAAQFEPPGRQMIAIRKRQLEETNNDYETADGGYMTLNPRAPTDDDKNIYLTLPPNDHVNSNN
The assay is described as follows: cell-based or functional assay.

Substitutions are numbered along the chain they refer to.

B1: 32LO0350 (antibody, human IgG1, V domains shown)
VH: QVQLVQSGAEVKKPGASVKVSCKASGYTFTNYGMNWVRQAPGQRLEWMGWLNTYTGESWYPDDFKGRVTITRDTSASTAYMELSSLRSEDTAVYYCARGDYGYDDPLDYWGQGTLVTVSS
VL: DIVMTQSPLSLPVTPGEPASISCRSSKSLLHTNRNTYLHWFLQKPGQSPQLLIYRMSVLASGVPDRFSGSGSGTDFTLKISRVEAEDVGVYYCMQHLEYPLTFGQGTKLEIK
notes: expressed as human IgG1-TM with human kappa light chain; also called optimized IV.3 clone 32LO0350
Take B1: in assay [1], the binding result is “binds”.

B2: 32LO0355 (antibody, human IgG1, V domains shown)
VH: B1 VH
VL: B1 VL with R34K
notes: expressed as human IgG1-TM with human kappa light chain; also called optimized IV.3 clone 32LO0355
Turning to B2, the binding result in assay [1] is “binds”.

B3: 32LO0354 (antibody, human IgG1, V domains shown)
VH: B1 VH with W59Y
VL: B1 VL
notes: expressed as human IgG1-TM with human kappa light chain; also called optimized IV.3 clone 32LO0354
Regarding B3, the binding result in assay [1] is “binds”.

B4: chimeric IV.3 (human IgG1-TM) (antibody, V domains shown)
VH: QIQLVQSGPELKKPGETVKISCKASGYTFTNYGMNWVKQAPGKGLKWMGWLNTYTGESIYPDDFKGRFAFSSETSASTAYLQINNLKNEDMATYFCARGDYGYDDPLDYWGQGTSVTVSS
VL: DIVMTQAAPSVPVTPGESVSISCRSSKSLLHTNGNTYLHWFLQRPGQSPQLLIYRMSVLASGVPDRFSGSGSGTAFTLSISRVEAEDVGVFYCMQHLEYPLTFGAGTKLELK
For the molecule B4, the “EC50 of FcγRIIA internalization from the monocyte surface, whole blood FACS assay” value in assay [2] is 0.2 nM.

The record behind these values is patent US20200002415A1 (published 2020).
